Results on three molecules are retold here after PMC11864197 (Science Advances, 2025).

As a reminder, the stoichiometry N is a count of units in the complex or per binding partner.

For data set [1], the target named is DDA1 (human, UniProt Q9BW61 1-102). The experiment in a line: cryo-EM structure.
The target in data set [2] is Full-length DDB1-DET1-DDA1 complex co-expressed with Ube2e2 (human, UniProt Q7L5Y6;Q16531;Q9BW61). As to the kind of experiment: SEC. (In general: In gel filtration, larger molecules generally elute earlier.)
Chain of Full-length DDB1-DET1-DDA1 complex co-expressed with Ube2e2 (Q7L5Y6 whole entry, one chain of several): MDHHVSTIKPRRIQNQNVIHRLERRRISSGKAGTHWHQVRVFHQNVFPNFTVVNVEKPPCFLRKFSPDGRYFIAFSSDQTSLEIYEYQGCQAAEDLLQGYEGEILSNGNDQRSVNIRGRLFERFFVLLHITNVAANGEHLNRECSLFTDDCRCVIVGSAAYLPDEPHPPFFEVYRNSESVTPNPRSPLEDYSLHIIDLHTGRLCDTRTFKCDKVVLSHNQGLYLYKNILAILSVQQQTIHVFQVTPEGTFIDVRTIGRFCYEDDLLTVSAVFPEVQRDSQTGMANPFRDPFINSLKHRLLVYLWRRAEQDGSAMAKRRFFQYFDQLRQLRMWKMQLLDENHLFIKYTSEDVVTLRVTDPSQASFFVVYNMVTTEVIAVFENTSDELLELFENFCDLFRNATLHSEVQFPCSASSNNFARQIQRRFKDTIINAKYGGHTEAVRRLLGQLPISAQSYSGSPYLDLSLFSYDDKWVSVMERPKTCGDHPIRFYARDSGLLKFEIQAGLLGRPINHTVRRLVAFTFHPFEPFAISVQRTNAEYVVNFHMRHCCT
Data set [3] deals with the molecule itself. The experiment in a line: multiple angle light scattering.

B1: DDB1(ΔBPB) (natural protein)
chain: MSYNYVVTAQKPTAVNGCVTGHFTSAEDLNLLIAKNTRLEIYVVTAEGLRPVKEVGMYGKIAVMELFRPKGESKDLLFILTAKYNACILEYKQSGESIDIITRAHGNVQDRIGRPSETGIIGIIDPECRMIGLRLYDGLFKVIPLDRDNKELKAFNIRLEELHVIDVKFLYGCQAPTICFVYQDPQGRHVKTYEVSLREKEFNKGPWKQENVEAEASMVIAVPEPFGGAIIIGQESITYHNGDKYLAIAPPIIKQSTIVCHNRVDPNGSRYLLGDMEGRLFMLLLEKEEQMDGTVTLKDLRVELLGETSIAECLTYLDNGVVFVGSRLGDSQLVKLNVDSNEQGSYVVAMETFTNLGPIVDMCVVDLERQGQGQLVTCSGAFKEGSLRIIRNGIGIQKLHIRTVPLYESPRKICYQEVSQCFGVLSSRIEVQDTSGGTTALRPSASTQALSSSVSSSKLFSSSTAPHETSFGEEVEVHNLLIIDQHTFEVLHAHQFLQNEYALSLVSCKLGKDPNTYFIVGTAMVYPEEAEPKQGRIVVFQYSDGKLQTVAEKEVKGAVYSMVEFNGKLLASINSTVRLYEWTTEKELRTECNHYNNIMALYLKTKGDFILVGDLMRSVLLLAYKPMEGNFEEIARDFNPNWMSAVEILDDDNFLGAENAFNLFVCQKDSAATTDEERQHLQEVGLFHLGEFVNVFCHGSLVMQNLGETSTPTQGSVLFGTVNGMIGLVTSLSESWYNLLLDMQNRLNKVIKSVGKIEHSFWRSFHTERKTEPATGFIDGDLIESFLDISRPKMQEVVANLQYDDGSGMKREATADDLIKVVEELTRIH
As to B1, the binding result in data set [1] is on record as “binds”.

B2: Full-length Ube2e2 co-expressed with the DDD complex (enzyme)
chain: MSTEAQRVDDSPSTSGGSSDGDQRESVQQEPEREQVQPKKKEGKISSKTAAKLSTSAKRIQKELAEITLDPPPNCSAGPKGDNIYEWRSTILGPPGSVYEGGVFFLDITFSPDYPFKPPKVTFRTRIYHCNINSQGVICLDILKDNWSPALTISKVLLSICSLLTDCNPADPLVGSIATQYMTNRAEHDRMARQWTKRYAT
With B2, in data set [2], the binding result is “binds”.

B3: COP1 RING domain (residues 126 to 208) (domain or fragment)
chain: SYEDKSNDFVCPICFDMIEEAYMTKCGHSFCYKCIHQSLEDNNRCPKCNYVVDNIDHLYPNFLVNELILKQKQRFEEKRFKLD
Turning to B3, the “stoichiometry N” value in data set [3] was 2.
